Measurements published in the supplement of paper PMC10567573.

B1: SCNN1D (parent)
chain: RRPSPVLRHLELLDEFARENIDSL

Variants of: B1
Assay: protein stability index of a GFP-peptide fusion (GPS, HEK-293T) (PSI 1-6); higher = more stable
Conditions: c terminus: a fixed tail appended
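Note: lentivirally expressed fusions sorted by FACS into six bins by GFP to DsRed ratio, PSI derived from sequencing read proportions per bin multiplied by bin number.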

Protein stability index of substitutions, site by site:
H9: M 1.89 | W 1.69 | F 1.74 | A 2.65 | T 3.83 | C 2.48 | P 3.95 | I 2.24 | K 3.28 | Q 3.79 | V 2.4 | E 3.99 | G 3.76 | R 3.92 | S 3.68 | L 2.17
L12: V 4.05 | A 3.81 | T 4.35 | E 4.08 | S 4.4 | I 3.65 | N 3.9 | K 4.1 | C 3.97 | D 4.64 | Y 3.56
E15: M 2.18 | N 3.41 | F 2.03 | Q 2.95 | K 2.82 | H 2.92 | Y 1.83 | S 3.27 | W 2.05 | A 2.97 | P 3.02 | L 1.76
R18: Q 2.84 | I 2.44 | T 3.16 | C 2.48 | N 2.42 | F 3 | S 3.26 | L 2.43 | G 3.6 | P 4.25 | W 1.73 | E 3.12 | V 2.35 | M 2.98 | K 3.67
S4: Q 3.89 | T 3.15 | Y 2.5 | K 3.14 | F 2.47 | G 2.65 | C 2.99 | W 2.35 | A 2.63 | P 3.17 | L 2.66 | D 3.68 | R 2.87 | E 3.61 | I 2.67 | M 2.88
L7: H 3.4 | E 3.53 | N 3.6 | Q 3.4 | T 3.48 | R 3.64 | F 3.29 | S 3.38 | P 4.08 | Y 3.24 | C 3.53 | I 3.1 | W 2.18
R2: A 3.98 | Y 1.63 | F 2.22 | S 4.32 | K 2.85 | N 3.25 | M 2.5 | L 1.94 | D 3.41 | G 3.52 | I 2.6 | P 4.61 | W 1.78 | H 2.68 | T 3.55 | E 3.22
E19: F 2.46 | K 2.74 | C 2.66 | G 3.88 | D 2.73 | W 1.82 | T 3.16 | I 2.5 | S 2.74 | R 2.61 | P 2.72 | V 2.88 | L 2.52
F16: Y 3.09 | Q 3.14 | C 3.61 | H 3.77 | W 2.64 | G 4.12 | K 3.91 | P 3.72 | M 2.25 | L 3.36 | N 3.88 | I 2.84 | T 4.21 | V 3.95 | E 3.63 | R 4.28 | A 2.61 | S 4.57
V6: H 3.79 | A 2.86 | K 2.63 | F 2.28 | T 2.98 | S 3.48 | N 3.77 | D 4.09 | W 1.79 | P 4.22 | Y 1.96 | L 1.91 | M 2.31 | E 3.37 | Q 2.82
S23: I 2.26 | Q 2.27 | M 2.56 | T 2.74 | V 2.45 | G 3.33 | P 2.99 | H 2.7 | C 2.5 | D 2.57 | A 2.07 | W 1.32 | F 1.74
R1: D 2.86 | E 3.36 | S 2.63 | G 2.46 | L 2.21 | T 2.38 | C 2 | I 2.1 | W 2.18 | Y 1.72 | Q 2.69 | P 2.58 | K 2.92 | F 1.99 | A 2.1
D22: F 1.57 | G 2.41 | H 2.87 | W 1.68 | P 2.22 | M 1.47 | S 2.42 | N 3.12 | L 1.55 | Q 2.47 | V 2.03 | K 2.97 | A 2.97
P3: R 2.85 | H 1.96 | S 2.72 | E 2.38 | V 1.44 | C 2.73 | D 2.74 | F 1.88 | Q 1.92 | G 2.75 | I 1.96 | W 1.76 | M 2.26 | N 3.06 | L 2.42
P5: G 3.53 | K 3.59 | Y 2.65 | E 3.77 | M 2.5 | Q 4.62 | A 2.4 | R 3.63 | I 2.27 | F 2.19
E11: R 2.96 | P 3.75 | L 1.41 | Y 2.25 | W 2.49 | Q 3.06 | T 2.41 | I 1.9 | D 3.55 | K 2.83 | M 2.14 | H 3.18 | S 3.25 | V 2.56
D14: T 2.21 | N 2.74 | I 1.78 | S 2.16 | R 2.27 | Q 2.94 | P 2.92 | V 1.37 | C 1.59 | F 1.42 | H 2.5 | E 2.56
L13: P 4.21 | I 3.73 | G 4.23 | R 3.6 | D 4.57 | E 4.48 | H 4.31 | N 4.16 | C 3.57 | M 3.59 | W 3.19 | Y 3.19
A17: N 4.14 | L 3.07 | I 2.46 | W 3.03 | Y 2.9 | P 3.48 | R 2.94 | G 3.72 | K 3.98 | T 3.62 | D 4.43 | H 3.74 | F 2.24 | M 2.92
N20: A 2.35 | C 2.33 | I 1.74 | D 3.65 | S 2.36 | P 3.04 | Y 2.07 | G 2.88 | H 1.85 | R 2.72 | Q 2.08
R8: C 2.09 | M 3.43 | I 2.37 | F 2.61 | W 2.7 | L 2.49 | A 3.33 | V 2.99 | Q 4.09 | T 3.59 | K 3.5 | S 3.77 | Y 2.87 | H 3.61 | D 4.71 | E 4.4
L24: Y 2.55 | T 3.3 | F 2.07 | H 2.88 | K 3.29 | P 3.19 | E 3.25 | I 2.46 | S 3.04 | M 2.4 | A 3.52 | G 3.06 | Q 3.23 | D 3.15 | C 2.73
L10: I 2.1 | M 2.34 | D 4.42 | R 4.46 | G 3.95 | A 3.84 | P 3.56 | T 3.59 | H 3.98 | Y 3 | N 4.23 | W 3.23 | S 4.16 | C 3.24 | E 4.49
I21: A 3.04 | G 3.38 | Y 2.34 | M 2.89 | K 3.36 | N 2.81 | D 3.36 | V 2.87 | T 2.98 | Q 3.59 | P 4.41 | C 2.43 | E 3.27 | W 1.87
